Target: T1, HER2 Y772dupYVMA peptide on HLA-A*02:01 (human)
T1 peptide: VMAYVMAGV
Test: multimer staining

binding result: recognises
B1: HER2 (Y772dupYVMA)/HLA-A*02:01-specific TCR (TCR, V domains shown)
Valpha: AQTVTQSQPEMSVQEAETVTLSCTYDTSESDYYLFWYKQPPSRQMILVIRQEAYKQQNATENRFSVNFQKAAKSFSLKISDSQLGDAAMYFCAYWSVPGGSYIPTFGRGTSLIVHP
Vbeta: EAQVTQNPRYLITVTGKKLTVTCSQNMNHEYMSWYRQDPGLGLRQIYYSMNVEVTDKGDVPEGYKVSRKEKRNFPLILESPSPNQTSLYFCASSLRPGTSIPGELFFGEGSRLTVL

Source: patent US20260201034A1 (published 2026)
